# Test results reported in the nanobody polyreactivity screen of Harvey et al. (2022).
# Experiment: yeast display, Sf9 membrane polyspecificity reagent, FACS + sequencing; frameworks hold sequencing errors
# In short: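 Polyreactivity labels are assigned by the sorting gate from which each nanobody was recovered. The gates were low and high (top ~1%), set on anti-HA fluorescence for expression and streptavidin fluorescence for reagent binding. Before sorting, galactose-induced (36–48 hours) yeast display cells were stained for 1 hour at 4 °C with 10% biotinylated, detergent-solubilized Sf9 membrane reagent.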
row,Sequence,polyreactivity (PSR sort gate)
1,QVQLVESGGGLVQAGGSLRLSCAASGRIFSRNALGWYRQAPGKERELVAAISWRGGRTYYAVSVKGRFAISRDNAKNTVYLQMNSLKPEDTAVYYCNAVSFGRARHGGPVYGYDYWGQGTQVTVSS,high polyreactivity
2,QVQLVESGGGLVQAGGSLRLSCAASGRIFSRNAMGWYRQAPGKERELVAAITWRGGSTYYADSVKGRFTISRDNAKNTVYLQMNSLKPEDTAVYYCNRDYRQYGYAYSGRYYWGQGTQVTVSS,high polyreactivity
3,QVQLVESGGGLVQAGGSLRLSCAASGRIFSRNTMGWYRQAPGKERELVAAISWRGGSTYYADSVKGRFTISRDNAKNTVYLQMNSLKPEDTAVFYCAAVVRSPAYDYWGQGTQVSVSS,high polyreactivity
4,QVQLVESGGGLVQAGGSLRLSCAASGRIFSRYAMGGYRQAPGKERELVAAIRYSGGRTYYADSVKGRFTISRDNAKNTVYLQMNSLIPEDTEVYYCAADGQWYYAPFRGGDYENDYWGQGTQVTVSS,low polyreactivity
5,QVQLVESGGGLVQAGGSLRLSCAASGRIFSRYAMGWYRQAPGKERELVAAITGRGGSTYYADSVKGRFTISRDNAKNTVYLQMNSLKPVDTAVYYCAVANRVTPLFLRYDYWGQGTQVTVSS,high polyreactivity
6,QVQLVESGGGLVQAGGSLRLSCAASGRIFSRYAMGWYRQAPGKERELVAAITWSVGSTYYADSVKGRFTISRDNAKNTVYLQMNSLKPEDTAVSYCAKLVRYYKPGYDYGGQGTQVTVSS,low polyreactivity
7,QVQLVESGGGLVQAGGSLRLSCAASGRIFSRYAMGWYRQAPGKERELVAAITYSGGSTYYADSVKGRFTISRDNAKNTVYLQMNSLKPEDTAVYYCNAATYGGRYYYWGQGTQVTVSS,high polyreactivity
8,QVQLVESGGGLVQAGGSLRLSCAASGRIFSRYVMGWYRQAPGKERELVAAITSSGGRTYYADSVKGRFTISRDNAKNTVYLQMNSLNPEDTAVYYCNNAPWWRTSSDYEYWGQGTQVTVSS,high polyreactivity
9,QVQLVESGGGLVQAGGSLRLSCAASGRIFSSNAMGWYRQAPGKEWELVAAITRGGSTNYADSVKGRFTISRDNAKNTDYLQMNSLKPEDTAVYYCNVDYYVFNHQGHLNYDYWGQGTQVTVSS,high polyreactivity
10,QVQLVESGGGLVQAGGSLRLSCAASGRIFSSNGMGWYRQAPGKERELVAAIRTDGGSTYYADSVKGRFTISRDNAKNTVYLQMNSLKPEDTAVYYCNAQGAYTDVFDVYQRQPDDYWGQGTQVTVSS,low polyreactivity
11,QVQLVESGGGLVQAGGSLRLSCAASGRIFSSNVMGWYRQAPGKERELVAAITSGGSTYYADSVKGRFTISRDNAKNTVYLQMNSLKPEDTAVYYCAASYWVLRYRYDYWGQGTQVTVSS,high polyreactivity
12,QVQLVESGGGLVQAGGSLRLSCAASGRIFSSYAMGWSRPAPGKERELVAAISSSGGNTYYADSVKGRFTISRDNAKNTVYLQMNSLKPEDTAVYYCNTRWVHRDWYDYWGQGTQVTVSS,high polyreactivity
13,QVQLVESGGGLVQAGGSLRLSCAASGRIFSSYAMGWYRKAPGKERELVAAISGSGGRTYYADSVKGRFTISRDNAKNTVYLQMNSLKPEDTAVYYCNARRRSPYSTGVAYDYWGQVTQVTVSS,high polyreactivity
14,QVQLVESGGGLVQAGGSLRLSCAASGRIFSSYAMGWYRQAPGKERELVAAISRSGARTYYADSVKGRFTISRDNAKNTVYLQMNSLKPEDTAVYYCAAVTVAGYDYWGQGTQVTVSS,high polyreactivity
15,QVQLVESGGGLVQAGGSLRLSCAASGRIFSSYDMGWYRQAPGKERELVAAISYSGGNTYYADSVKGRFTISRDTAKNTVYLQMNSLKPEDTAVYYCAARLPGYRYYYWGQGTQVTVSS,high polyreactivity
16,QVQLVESGGGLVQAGGSLRLSCAASGRIFSSYVMGWYRQAPGKERELVAAIRWSGGSTYYADSVKGRFTISRDNAKNTVYLQMNSLKPEDTAVYYCAAVVYRYYATGYGYWGQGTQVTVSS,high polyreactivity

row,Sequence,polyreactivity (PSR sort gate)
1,QVQLVESGGGLVQAGGSLRLSCAASGRIFSTYAMGWYRQAPGKERELVAAITNSAGSTYYADSVKGLFTISRDNAKNTVYLQMNSLKPEDTAVYYCATGWSRISYGFDYWGQGTQVTVSS,low polyreactivity
2,QVQLVESGGGLVQAGGSLRLSCAASGRIFSTYVMGWYRQAPGKERELVAAITWSGGSTYYADSVKGRFTISRDNAKNTVYLQMNSLKPEDTAVYYCAADEIYRYGYWGQGTLVTVSS,high polyreactivity
3,QVQLVESGGGLVQAGGSLRLSCAASGRIFSVYAMGWYRQAPGKERELVAAITRVGSTNYADSVKGRFTISRDNAKNTVFLLMNSLKQEDTAVYYCARTYSTRGYYYWGQGTQVTVSS,high polyreactivity
4,QVQLVESGGGLVQAGGSLRLSCAASGRIFSVYAMGWYRQAPGKERELVAAITRVGSTNYADSVKGRFTISRDNAKNTVYLQMNSLKPEDTAVYYCAAVARTVPSYSYNYWGQGTQVTVSS,high polyreactivity
5,QVQLVESGGGLVQAGGSLRLSCAASGRIFSVYAMGWYRQAPGKERELVASIRSRGSSTYYADSVKGRFTISRDNAKNTVYLQMNSLKPEDTAVYYCAVDVLTVGQSYDHWGQGTQVTVSS,high polyreactivity
6,QVQLVESGGGLVQAGGSLRLSCAASGRIFSVYDMGWYRQAPGKERELVAAIDTSDGSTNYADSVKGRFTISRDNAKNTVYLQMNSLKPEDTAVYYCNATDSYVPFDYWGQGTQVTVSS,low polyreactivity
7,QVQLVESGGGLVQAGGSLRLSCAASGRIFSWYAMGWYRQAPGKERELVAAISWRGGSTYYADSVKGRFTISRDNAKNTVYLQMNSLKPEDTAVYYCIGGPGGYDYWGHGTQVTVSS,low polyreactivity
8,QVQLVESGGGLVQAGGSLRLSCAASGRIFSYAMGWYRQAPGKERELVAAINWSGDSTYYADSVKGRFTISRDNAKNTVYLQMNSLKPEDTAVYYCNAVSAYWGAYGYWGQGTQVTVSS,high polyreactivity
9,QVQLVESGGGLVQAGGSLRLSCAASGRIFSYNAMGSDRQAPGKERELVADISSGGSTYYADSVKGRFTISRDNAKNSVYLQMNSLKPEDSAVYYCNADYYAFPWTNEYWGQGTQVTVSS,high polyreactivity
10,QVQLVESGGGLVQAGGSLRLSCAASGRIFSYNAMGWYRQAPGKERELVAAITFSGGGTYYADSVKGRFTISRDNAKNTVYLQMNSLKPEDTAVYYCAADVPPKYRHRYNLYDYWGQGTQVTVSS,low polyreactivity
11,QVQLVESGGGLVQAGGSLRLSCAASGRIFSYYAMGWYRPAPGKERELVAAISSSGGSTYYADSVKGRFTISRDNAKNTVYLQMNSLKPEDTAVYYCRVYTRGEYYSWGQGTQVTVSS,high polyreactivity
12,QVQLVESGGGLVQAGGSLRLSCAASGRIFSYYAMGWYRQAPGKERELVAAIRWSGGRTYYADSVKGRFTISRDNAKNTVYLQMNSLKPEDTAVYYCAAEGAYRLAYDYWGQGTQVTVSS,high polyreactivity
13,QVQLVESGGGLVQAGGSLRLSCAASGRIFSYYAMGWYRQAPGKERELVATIDRSGDPTSYADSVKGRFTISRDNAMNTVYLKMNSLKPEDTAVYYCAATSKRARYDSWGQGTQVTVSS,high polyreactivity
14,QVQLVESGGGLVQAGGSLRLSCAASGRIFSYYAMGWYRQAPGKEREMVAAISGNGGSTYYADSVKGRFTISRDNAKNTVYLQMNSLKPEDTAVYYCAADWWSSDWAYLYPYSYDYWGQGTQVTVSS,low polyreactivity
15,QVQLVESGGGLVQAGGSLRLSCAASGRIFSYYAMGWYRQAPWKERELVAAISSSGGSTYYADSVKGRFTISRDNAKNTVYLQMNSLKPEDTEVYYCAKLLYGFGRYGYWGQGTQVTVSS,high polyreactivity
16,QVQLVESGGGLVQAGGSLRLSCAASGRIFSYYDMGWYRQAPGKERELVATIRWSTSSTYADSVKGRFTISRDNAKPTVYLQMNILKPEDTAVYYCNAQYSQVNGYDYWGQGTQVTVSS,low polyreactivity
